Values quoted from earlier work as cited in patent US12441709B2, “Therapeutic compounds” (INDIVIOR UK LIMITED, priority 2016, dated 2025).
No end group written: not given here.

Molecular target: T1, orexin-1 (OX1) (Homo sapiens, UniProt O43613)
T1 sequence (O43613 1-425): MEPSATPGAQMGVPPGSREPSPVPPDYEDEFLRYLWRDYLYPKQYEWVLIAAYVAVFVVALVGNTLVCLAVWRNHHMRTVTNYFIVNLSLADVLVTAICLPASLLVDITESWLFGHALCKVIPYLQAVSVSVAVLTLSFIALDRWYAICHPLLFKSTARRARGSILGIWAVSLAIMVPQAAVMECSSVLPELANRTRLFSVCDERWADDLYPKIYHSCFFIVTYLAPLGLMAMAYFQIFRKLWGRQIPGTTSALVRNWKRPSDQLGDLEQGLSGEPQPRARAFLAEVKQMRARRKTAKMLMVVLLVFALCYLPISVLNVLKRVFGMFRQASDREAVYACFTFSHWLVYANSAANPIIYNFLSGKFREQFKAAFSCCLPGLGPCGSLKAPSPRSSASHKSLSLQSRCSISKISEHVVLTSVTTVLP
Conditions: affinity of OxA relative to OxB at OX1; literature reference (2); cited from earlier work

Substance: OxA: neuropeptide Orexin-A, a 33 amino acid polypeptide, agonist on OX1 and OX2 receptors (QPLPDCCRQKTCSCRLYELLHGAGNHAAGILTL; not fully specified (residue 1, C-terminus, bridges); cysteine pairing not given here; UniProt O43612 34-66, looked up)
- higher affinity than OxB: > 10 fold
